Measured values taken from US20190085055A1.
pKd: −log10 of the molar value. Values joined by “and” are separate entries in the source; they are usually repeats but may differ in a detail not shown here. Identical values can stand only once.

What was measured:
[1] = biological target: D3H44 light chain F116A_L135A; test: LCCA (SPR), competitor L1 L135W
[2] = biological target: D3H44 light chain F116A_L135V; test: LCCA (SPR), competitor L1 L135W
[3] = biological target: D3H44 light chain L135W; test: LCCA (SPR), competitor L2 F116A_L135V
[4] = biological target: D3H44 light chain F116A_L135A; test: LCCA (SPR), competitor L1 L135W_N137A
[5] = biological target: D3H44 light chain L135W; test: LCCA (SPR), competitor L2 F116A_L135A
[6] = biological target: D3H44 light chain L135W_N137A; test: LCCA (SPR), competitor L2 F116A_L135A
[7] = biological target: D3H44 light chain F118W_V133S; test: LCCA (SPR), competitor L1 F116S
[8] = biological target: D3H44 light chain, wild type; test: LCCA (SPR), competitor L2 F116A
[9] = biological target: D3H44 light chain F116A; test: LCCA (SPR), competitor L1 WT
[10] = biological target: D3H44 light chain F116S; test: LCCA (SPR), competitor L2 F118W_V133S
[11] = biological target: D3H44 light chain V133S; test: LCCA (SPR), competitor L2 S176L
[12] = biological target: D3H44 light chain S176L; test: LCCA (SPR), competitor L1 V133S
[13] = biological target: D3H44 light chain, wild type; test: LCCA (SPR), competitor L1 S176L
[14] = biological target: D3H44 light chain V133S; test: LCCA: H2 co-expressed with L1 and L2, SPR read-out of light chain tags; competing chain L2
[15] = biological target: D3H44 light chain S176L; test: LCCA (SPR), competitor L2 WT
[16] = biological target: D3H44 light chain S176L; test: LCCA: H2 co-expressed with L1 and L2, SPR read-out of light chain tags; competing chain L1
[17] = biological target: D3H44 light chain Q38E; test: LCCA (SPR), competitor L1 Q38M; second of two ratios in the cell
[18] = biological target: D3H44 light chain Q38E; test: LCCA (SPR), competitor L1 Q38M; first of two ratios in the cell
[19] = biological target: D3H44 light chain Q38M; test: LCCA (SPR), competitor L2 Q38E; second of two ratios in the cell
[20] = biological target: D3H44 light chain Q38E; test: LCCA (SPR), competitor L1 Q38M
[21] = biological target: D3H44 light chain Q38M; test: LCCA (SPR), competitor L2 Q38E; first of two ratios in the cell
[22] = biological target: D3H44 light chain Q38M; test: LCCA (SPR), competitor L2 Q38E
[23] = biological target: D3H44 light chain, wild type; test: LCCA (SPR), competitor L2 S176V_T178L
[24] = biological target: D3H44 light chain S176V_T178L; test: LCCA (SPR), competitor L1 WT
[25] = biological target: D3H44 light chain V133S; test: LCCA: H1 co-expressed with L1 and L2, SPR read-out of light chain tags; competing chain L2
[26] = biological target: D3H44 light chain S176L; test: LCCA: H1 co-expressed with L1 and L2, SPR read-out of light chain tags; competing chain L1
[27] = biological target: D3H44 light chain, wild type; test: LCCA (SPR), competitor L1 L89R_F98T
[28] = biological target: D3H44 light chain L89R_F98T; test: LCCA (SPR), competitor L2 WT
[29] = biological target: D3H44 light chain L89R_F98W; test: LCCA: H1 co-expressed with L1 and L2, SPR read-out of light chain tags; competing chain L2
[30] = biological target: D3H44 light chain L89R_F98W; test: LCCA (SPR), competitor L2 F98Y
[31] = biological target: D3H44 light chain L89R_F98W; test: LCCA (SPR), competitor L2 WT
[32] = biological target: D3H44 light chain, wild type; test: LCCA: H1 co-expressed with L1 and L2, SPR read-out of light chain tags; competing chain L1
[33] = biological target: D3H44 light chain F98Y; test: LCCA (SPR), competitor L1 L89R_F98W
[34] = biological target: D3H44 light chain, wild type; test: LCCA (SPR), competitor L1 L89R_F98W
[35] = biological target: D3H44 light chain F98W; test: LCCA (SPR), competitor L1 F98L
[36] = biological target: D3H44 light chain F98L; test: LCCA (SPR), competitor L2 F98W
[37] = biological target: D3H44 light chain F98A; test: LCCA (SPR), competitor L2 F98W
[38] = biological target: D3H44 light chain F98W; test: LCCA (SPR), competitor L1 F98A
[39] = biological target: D3H44 light chain, wild type; test: LCCA (SPR), competitor L1 F98A
[40] = biological target: D3H44 light chain, wild type; test: LCCA (SPR), competitor L2 F98L
[41] = biological target: D3H44 light chain F98L; test: LCCA (SPR), competitor L1 WT
[42] = biological target: D3H44 light chain F98A; test: LCCA (SPR), competitor L2 WT
[43] = biological target: D3H44 light chain F98A; test: LCCA (SPR), competitor L1 P44W
[44] = biological target: D3H44 light chain F98A; test: LCCA (SPR), competitor L1 Q38E
[45] = biological target: D3H44 light chain F98A; test: LCCA (SPR), competitor L1 Q38R
[46] = biological target: D3H44 light chain Q38E; test: LCCA (SPR), competitor L2 F98A
[47] = biological target: D3H44 light chain Q38R; test: LCCA (SPR), competitor L2 F98A
[48] = biological target: D3H44 light chain P44W; test: LCCA (SPR), competitor L2 F98A
[49] = biological target: D3H44 light chain F98A; test: LCCA (SPR), competitor L1 F98W
[50] = biological target: D3H44 light chain F98W; test: LCCA (SPR), competitor L2 F98A
[51] = biological target: D3H44 light chain F98A; test: LCCA (SPR), competitor L1 WT
[52] = biological target: tissue factor extracellular domains (human) (UniProt P13726); test: SPR, TF immobilised, purified Fab as analyte, 1:1 model
[53] = biological target: tissue factor extracellular domains (human) (UniProt P13726); test: SPR, median of repeats

## D3H44 heavy chain (Fab format) A139G_V190A
[1]
  H1 L2 of H1 L1:H1 L2 (screen): 10.1
  H1 L2 of H1 L1:H1 L2 (verification): 10.6
[2]
  H1 L2 of H1 L1:H1 L2 (screen): 13.8
  H1 L2 of H1 L1:H1 L2 (verification): 48.3
[3]
  H1 L1 of H1 L1:H1 L2 (screen): 68.4
  H1 L1 of H1 L1:H1 L2 (verification): 49
[4]
  H1 L2 of H1 L1:H1 L2 (screen): 5.16
[5]
  H1 L1 of H1 L1:H1 L2 (screen): 65
  H1 L1 of H1 L1:H1 L2 (verification): 69.5
[6]
  H1 L1 of H1 L1:H1 L2 (screen): 70.5

## D3H44 heavy chain (Fab format) A139W
[7]
  H2 L2 of H2 L2:H2 L1 (screen): 76.5
  H2 L2 of H2 L2:H2 L1 (verification): 38.1 and 40.9
[1]
  H2 L2 of H2 L2:H2 L1 (screen): 77.4
  H2 L2 of H2 L2:H2 L1 (verification): 78.7
[2]
  H2 L2 of H2 L2:H2 L1 (screen): 62.7
  H2 L2 of H2 L2:H2 L1 (verification): 76.7
[3]
  H2 L1 of H2 L2:H2 L1 (screen): 34.6
  H2 L1 of H2 L2:H2 L1 (verification): 19.1
[8]
  H1 L1 of H1 L1:H1 L2 (screen): 58.7
[4]
  H2 L2 of H2 L2:H2 L1 (screen): 73.6
[5]
  H2 L1 of H2 L2:H2 L1 (screen): 17.4
  H2 L1 of H2 L2:H2 L1 (verification): 10.2
[6]
  H2 L1 of H2 L2:H2 L1 (screen): 19.8
[9]
  H1 L2 of H1 L1:H1 L2 (screen): 30.5
[10]
  H2 L1 of H2 L2:H2 L1 (screen): 4.6
  H2 L1 of H2 L2:H2 L1 (verification): 40.9 and 38.1

## D3H44 heavy chain (Fab format) F174V_P175S_S188G
[11]
  H2 L1 of H2 L2:H2 L1 (screen): 1.44
  H2 L1 of H2 L2:H2 L1 (verification): 2.9
[12]
  H2 L2 of H2 L2:H2 L1 (screen): 81.1
  H2 L2 of H2 L2:H2 L1 (verification): 68.1
[13]
  H1 L2 of H1 L1:H1 L2 (screen): 9.68
[14]
  H2 Readout (H2-L1): 1
[15]
  H1 L1 of H1 L1:H1 L2 (screen): 53.4
[16]
  H2 Readout (H2-L2): 98

## D3H44 heavy chain (Fab format) Q39M
[17]
  H1 L2 of H1 L1:H1 L2 (verification): 40.6
[18]
  H1 L2 of H1 L1:H1 L2 (verification): 31.3
[19]
  H1 L1 of H1 L1:H1 L2 (verification): 58.8
[20]
  H1 L2 of H1 L1:H1 L2 (screen): 33.3
[21]
  H1 L1 of H1 L1:H1 L2 (verification): 60.2
[22]
  H1 L1 of H1 L1:H1 L2 (screen): 69.6

## D3H44 heavy chain (Fab format) S188I
[23]
  H1 L1 of H1 L1:H1 L2 (screen): 61.9
[24]
  H1 L2 of H1 L1:H1 L2 (screen): 41.9

## D3H44 heavy chain (Fab format) S188L_V190Y
[11]
  H1 L1 of H1 L1:H1 L2 (screen): 90
  H1 L1 of H1 L1:H1 L2 (verification): 81.2
[12]
  H1 L2 of H1 L1:H1 L2 (screen): 7.72
  H1 L2 of H1 L1:H1 L2 (verification): 12.4
[25]
  H1 Readout (H1-L1): 83
[26]
  H1 Readout (H1-L2): 24

## D3H44 heavy chain (Fab format) V37E
[27]
  H1 L2 of H1 L1:H1 L2 (screen): 25
  H1 L2 of H1 L1:H1 L2 (verification): 16.5
[28]
  H1 L1 of H1 L1:H1 L2 (screen): 54.1
  H1 L1 of H1 L1:H1 L2 (verification): 90.9

## D3H44 heavy chain (Fab format) V37E_F100D
[29]
  H1 Readout (H1-L1): 99
[30]
  H1 L1 of H1 L1:H1 L2 (screen): 67.8
  H1 L1 of H1 L1:H1 L2 (verification): 76.3
[31]
  H1 L1 of H1 L1:H1 L2 (screen): 98.7
  H1 L1 of H1 L1:H1 L2 (verification): 119
[32]
  H1 Readout (H1-L2): 10
[33]
  H1 L2 of H1 L1:H1 L2 (screen): 24.4
  H1 L2 of H1 L1:H1 L2 (verification): 18.1
[34]
  H1 L2 of H1 L1:H1 L2 (screen): 4.2
  H1 L2 of H1 L1:H1 L2 (verification): 4.5

## D3H44 heavy chain (Fab format) V37I
[35]
  H2 L2 of H2 L2:H2 L1 (screen): 65.7
[36]
  H2 L1 of H2 L2:H2 L1 (screen): 21.7
[37]
  H2 L1 of H2 L2:H2 L1 (screen): 30.9
[38]
  H2 L2 of H2 L2:H2 L1 (screen): 66.5
[39]
  H2 L2 of H2 L2:H2 L1 (screen): 72.6
[40]
  H1 L1 of H1 L1:H1 L2 (screen): 78.5
[41]
  H1 L2 of H1 L1:H1 L2 (screen): 7.34
[42]
  H2 L1 of H2 L2:H2 L1 (screen): 28.7

## D3H44 heavy chain (Fab format) V37W
[43]
  H2 L2 of H2 L2:H2 L1 (screen): 83.1
[37]
  H1 L1 of H1 L1:H1 L2 (screen): 62.4
  H1 L1 of H1 L1:H1 L2 (verification): 61.5
[44]
  H2 L2 of H2 L2:H2 L1 (screen): 65.9
  H2 L2 of H2 L2:H2 L1 (verification): 70.5
[38]
  H1 L2 of H1 L1:H1 L2 (screen): 23.5
  H1 L2 of H1 L1:H1 L2 (verification): 23.4
[39]
  H1 L2 of H1 L1:H1 L2 (screen): 28.8
[45]
  H2 L2 of H2 L2:H2 L1 (screen): 48.9
  H2 L2 of H2 L2:H2 L1 (verification): 47.8
[46]
  H2 L1 of H2 L2:H2 L1 (screen): 8.05
  H2 L1 of H2 L2:H2 L1 (verification): 10.3
[47]
  H2 L1 of H2 L2:H2 L1 (screen): 26.8
  H2 L1 of H2 L2:H2 L1 (verification): 26.7
[48]
  H2 L1 of H2 L2:H2 L1 (screen): 9.41
[42]
  H1 L1 of H1 L1:H1 L2 (screen): 64.1

## D3H44 heavy chain (Fab format), wild type
[35]
  H2 L2 of H2 L2:H2 L1 (screen): 74.2
  H2 L2 of H2 L2:H2 L1 (verification): 50.8
[36]
  H2 L1 of H2 L2:H2 L1 (screen): 27.8
  H2 L1 of H2 L2:H2 L1 (verification): 23.6
[49]
  H1 L2 of H1 L1:H1 L2 (screen): 28.7
  H1 L2 of H1 L1:H1 L2 (verification): 28.7
[50]
  H1 L1 of H1 L1:H1 L2 (screen): 67.1
  H1 L1 of H1 L1:H1 L2 (verification): 67.1
[9]
  H1 L2 of H1 L1:H1 L2 (screen): 26.3
[24]
  H2 L2 of H2 L2:H2 L1 (screen): 99.4
[41]
  H1 L2 of H1 L1:H1 L2 (screen): 13.3
[51]
  H1 L2 of H1 L1:H1 L2 (screen): 7.5

## Wild-type anti-TF D3H44 Fab
[52]
  pKd: 10.28
[53]
  pKd: 10.22
